US12655409B2, “Recombinant lysin and its use in the treatment of Gram-negative bacterial infections” (TELUM THERAPEUTICS S.L., priority 2020, dated 2026)

Experiments:
[1] = tested on: E. coli strain ATCC 25922; test: Enzyme bactericidal activity assay on E. coli ATCC 25922; type: cell-based, Escherichia coli
Description: (§1) Briefly, the different bacterial cultures were incubated in the specific media (Table 1) at 37° C. or 30° C., according to the strain, until reaching an A600 of 0.3. The cells were then deposited by centrifugation (4500×g, 10 min) and washed twice with the corresponding buffer, with the A600 being adjusted to ≈0.3. A volume of 160 μl of the bacterial suspension was transferred to sterile 96-well plates to which there were added 40 μl of the enzyme under study in a range of doses comprised between 1 and 60 μg mL^−1. The control wells were treated with the same volume of buffer […]. The plates were incubated at 37° C. Samples were taken at different times, serial dilutions performed, and they were seeded in plates containing the specific medium to determine viable bacteria. The experiments were repeated at least 3 times. The bactericidal effect of IKB206 (and its variants) was quantified as the number of logs reduced in the presence of treatment, after a given incubation time (log10 (N0/Ni), where N0=number of CFU mL^−1 before treatment, and Ni=number of CFU mL^−1 after the corresponding incubation time in the presence of each treatment).

[2] = tested on: E. coli strain DSM 17076 with serotype O157: H7; test: Enzyme bactericidal activity assay on E. coli serotype O157:H7; type: cell-based, Escherichia coli; settings: 15 μg mL^−1
Description: as §1

[3] = tested on: strains from S. xylosus, E. avium, E. faecium and E. faecalis; test: Enzyme bactericidal activity assay on strains of chicken microbiota; type: cell-based; settings: 15 μg mL^−1
Description: as §1

Klebsiella pneumoniae = test: Enzyme bactericidal activity assay on K. pneumoniae; type: cell-based
Description: as §1, with “A volume of 160 μl of the bacterial suspension was transferred to sterile 96-well plates to which there were added 40 μl of the enzyme under study in a range of doses comprised between 1 and 60 μg mL^−1.” left out

Citrobacter freundii = test: Enzyme bactericidal activity assay on C. freundii; type: cell-based; settings: compared with E. coli or K. pneumoniae
Description: as §1

Serratia marcescens = test: Enzyme bactericidal activity assay on S. marcescens; type: cell-based; settings: incubation time of 120 min
Description: as §1

Acinetobacter baumannii = test: Enzyme bactericidal activity assay on A. baumannii; type: cell-based
Description: as §1, with “A volume of 160 μl of the bacterial suspension was transferred to sterile 96-well plates to which there were added 40 μl of the enzyme under study in a range of doses comprised between 1 and 60 μg mL^−1.” left out

Pseudomonas aeruginosa = test: Enzyme bactericidal activity assay on P. aeruginosa; type: cell-based
Description: as §1, with “A volume of 160 μl of the bacterial suspension was transferred to sterile 96-well plates to which there were added 40 μl of the enzyme under study in a range of doses comprised between 1 and 60 μg mL^−1.” left out

[4] = tested on: E. coli strain ATCC 25922; test: Stability studies by E. coli bactericidal activity assay; type: physicochemical, Escherichia coli; settings: 29 days of storage; −80, −20, 4, 25° C.; glycerol 0 to 10%
Description: To that end, E. coli strain ATCC 25922 and 15 μg mL^−1 of IKB206 dissolved in different concentrations of glycerol (0, 0.2, 2, 5 and 10%) were used. The assays were carried out at different storage temperatures (−80° C., −20° C., 4° C., 25° C.) and storage times (1, 5, 7, 14, 21 and 29 days).

human HEK293 cells = test: Cytotoxicity assay by means of sulforhodamine B; type: cell-based; settings: 50 to 400 μg mL^−1, 48 h
Description: A seeding test was performed with human HEK293 cells before performing the experiment. To that end, three different cell concentrations were seeded in a 96-well plate in 100 μl of DMEM medium+10% Fetal Bovine Serum (FBS). These cells were incubated at 37° C. and 5% CO2 for 72 h, monitoring growth. The initial cell concentration showing 80% confluence at 72 h was selected for the further assays, which in this case was 7000 cells/well. Twenty-four hours after seeding the cells, another 100 μl of medium with the concentrations of purified protein IKB206tags to be tested was added. In this case, 400 μg mL^−1, 200 μg mL^−1, 100 μg mL^−1, and 50 μg mL^−1. The assays were performed in quadruplicate. As controls, the cells were incubated only with culture media and with the buffer in which the protein is dissolved (vehicle control). Buffer volume added as a vehicle control was the same volume of the highest protein concentration. The plate was left to incubate for another 48 h. The results were obtained by means of fixing the cells by adding 50 μl of 50% cold trichloroacetic acid (TCA) per well and leaving the plate to incubate for 1 h at room temperature. After discarding the TCA, the plate was washed with distilled water and 40 μl of 0.4% sulforhodamine B (SRB) were added. […] The results were read in Cytation (Bioteck, USA) at an absorbance of 510 nm.

E. coli ATCC 25922 [5] = test: Efficacy assay using a sepsis model in zebrafish; type: in vivo; settings: 72 hpi
Description: Once the minimum lethal dose is determined, the six-month old wild-type zebrafish (1.2 grams) were inoculated intraperitoneally (IP) with a total of 10 μl containing 5.5×10^7 CFU mL^−1 of the bacterium E. coli grown in LB medium. All the experiments were repeated at least three times.
To study the protection mediated by the chimera IKB206tags, groups of five (5) six-month old wild-type female zebrafish were infected intraperitoneally (IP) with a lethal dose of the bacterium E. coli (5.5×10^7 CFU). After 1 h, the animals were treated by administering 10 μl of IKB206tags subcutaneously with a dose of 1, 0.5, and 0.25 mg kg-1 of body weight. The fish included in the control group were treated with the buffer in which the protein is dissolved. The animals were observed several times a day and the number of deaths was recorded daily 72 hours post infection (hpi).

[6] = uninfected fish, 1 μg g-1
Description: The intraperitoneal (IP) route is chosen for an infection model as it is easy and quick to implement, turning this technique into one that is particularly indicated for use in different groups of experimentation animals. One hour after infection with E. coli ATCC 25922, different doses of IKB206 were administered to each of the groups. […] Furthermore, to determine the toxicity of IKB206 in adult fish, assays in which uninfected fish were inoculated with the highest amount of protein used in the efficacy assays (1 μg g-1) were performed.

E. coli ATCC 25922 [7] = test: MIC by microdilution in TP-Na 10 mM pH 6.15; type: cell-based, Escherichia coli
Description: The IKB206tags endolysin was purified from the Escherichia coli BL21 (DE3) strain, as previously described.
Checkerboard tests were assessed by the microdilution method, as previously described (Moody JA 1992, Moellering E G., Jr.1996). […] Each microtiter well contained 100 μl of a E. coli inoculum of 1×10^5 CFUs mL^−1, with or without the corresponding compounds, in a final volume of 200 μl of Sodium phosphate (TP-Na) buffer 10 mM pH 6.15 per well and the plates were incubated at 37° C. for 17 h.

B1: IKB206: fusion of Enterobacter phage Arya putative endolysin (SEQ ID NO:1) and domain D8 of Bacillus amyloliquefaciens phage endolysin (SEQ ID NO:2), without tags (protein)
chain: MKTSPNGIAVTKYFESFEARAYPDPATGGKPYTIGFGTTVYPSGAPVRLGDVCTKEQAEKYLQNDLAKFEKIVSDAVRVPLNQGQFDALVSFTYNLGPANLRSSTLLKKLNAGDYAGAAKEFPRWNRANGKVMKGLTRRRAAEQCLFEGMGGASAIERGVAAANSGTPKNVSRGTSSTKTTPKYKVKNGDNLTKIAKKHNTTVATLLKLNPGIKDPNMIRVGQTLNVTGSGGKTHKVKSGDTLSKIAVDNKTTVSKLMNLNPEITNPNHIKVGQTIRLS
modifications: Chimeric endolysin (SEQ ID NO1 + SEQ ID NO2)
- reduction in CFU mL^−1 ([1]; 5 μg mL^−1, 15 min of incubation): significantly reducing
- incubation time for killing the entire culture ([1]; 15 μg mL^−1): 30 min
- reduction of the number of CFU mL^−1 ([1]; 15 μg mL^−1, 5 minutes of incubation): significantly reducing
- bactericidal effect (log reduction) ([1]; 15 μg mL^−1, 15 minutes of incubation): more than 3 log
- reduction of the bacterial suspension ([1]; 15 μg mL^−1, 30 min of incubation): 5 log
- incubation time for killing the entire culture ([1]; 60 μg mL^−1): 15 min
- bactericidal activity on serotype O157:H7 [2]: excellent activity
- bactericidal effect on chicken gut microbiota strains [3]: virtually no effect
- bactericidal activity (Klebsiella pneumoniae; 15 μg mL^−1, 120 min): bactericidal activity
- killing of the cells present in the assay (Klebsiella pneumoniae; 150 μg mL-1, 120 min): capable of killing all the cells present in the assay
- bactericidal activity (reduction) (Klebsiella pneumoniae; under the tested conditions (15 or 150 μg mL^−1)): ≥ 4 logarithms
- bactericidal activity (Citrobacter freundii): significantly lower than that observed in E. coli or K. pneumoniae
- bactericidal effect (Serratia marcescens): ~3 logarithms
- bactericidal activity (Acinetobacter baumannii; 15 μg mL^−1, 120 min): bactericidal activity
- killing of the cells present in the assay (Acinetobacter baumannii; 150 μg mL-1, 120 min): capable of killing all the cells present in the assay
- reductions in CFU/mL (Acinetobacter baumannii; 15 or 150 μg mL^−1): more than 4 logs
- bactericidal activity (Pseudomonas aeruginosa; 15 μg mL^−1, 120 min): bactericidal activity
- killing of the cells present in the assay (Pseudomonas aeruginosa; 150 μg mL-1, 120 min): capable of killing all the cells present in the assay
- reductions in CFU/mL (Pseudomonas aeruginosa; 15 or 150 μg mL^−1): more than 4 logs
- stability (bactericidal activity after storage) [4]: still fully active
- cytotoxicity versus control (culture media) (human HEK293 cells): not toxic
- survival (protection) (E. coli ATCC 25922 [5]; 1 μg g-1 (1 mg kg-1) subcutaneously 1 h after infection): 66.6%
- survival (protection) (E. coli ATCC 25922 [5]; 0.25 mg kg-1 subcutaneously 1 h after infection): 16.6%
- survival (protection) (E. coli ATCC 25922 [5]; 0.5 mg kg-1 subcutaneously 1 h after infection): 33.3%
- toxicity in adult fish versus protein buffer [6]: no differences
- MIC (E. coli ATCC 25922 [7]): 9.375 µg/mL
